Data as given in US20230312742A1 (Y MABS THERAPEUTICS, published 2023).

Legend:
[1] = biological target: T1, CD38 on CD38(+) cancer cells (RPMI8226, Raji, Daudi) (UniProt P28907 1-300, limits assumed); experiment: flow cytometry on Raji cells, detection with an anti-his tag antibody
T1 construct: whole, on cells; Endogenous CD38 on tumour cell lines; also called CD38(+) tumor cells; CD38(+) Raji cells

[2] = biological target: T1, CD38 on CD38(+) cancer cells (RPMI8226, …); experiment: flow cytometry on RPMI 8226 cells, detection with an anti-his tag antibody
[3] = biological target: T2, human CD38 antigen (recombinant human CD38 protein) (human, UniProt P28907 43-300, limits assumed); experiment: SPR, His-tagged SADA captured on NiHC200M chip, recombinant human CD38 in solution; average
[4] = biological target: T2, human CD38 antigen (recombinant human …); experiment: SPR, His-tagged SADA construct captured on a NiHC200M chip, recombinant human CD38 protein injected
[5] = biological target: T2, human CD38 antigen (recombinant human …); experiment: SPR, IgG captured on anti-human Fc, human CD38 in solution;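 also: humanized IgG captured on an amine-coupled anti-human Fc HC30M chip, with human CD38 injected as a dilution series from 1000 nM downward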
[6] = biological target: T2, human CD38 antigen (recombinant human …); experiment: SPR, His-tagged SADA construct captured on a NiHC200M chip, recombinant human CD38 protein injected; remark: listed apart in the source
[7] = biological target: T1, CD38 on CD38(+) cancer cells (RPMI8226, …); experiment: flow cytometry on RPMI8226 cells
[8] = biological target: T2, human CD38 antigen (recombinant human …); experiment: SPR, BsAb (1 µg/ml) captured on anti-human Fc chip, human CD38 in solution; average, N=6
[9] = biological target: T1, CD38 on CD38(+) cancer cells (RPMI8226, …); experiment: flow cytometry on Daudi cells, goat anti-human IgG fluorochrome-conjugated secondary antibody

B1: 8DC-4 (anti-CD38 scFv-(G4S)4-huC825 anti DOTA scFv-linker-P53-linker-His tag) (bispecific antibody)
chain: QVQLQESGPGLVKPSETLSLTCTVSGFSLTSYGVHWVRQPPGKCLEWIGVMWRGGSTDYNAAFKSRVTISKDNSKNQVSLKLSSVTAADTAVYYCAKSMITTGFVMDSWGQGTLVTVSSGGGGSGGGGSGGGGSGGGGSGGGGSGGGGSDIQLTQSPSSLSASVGDRVTITCKASEDIYNRLTWYQQKPGKAPKLLISGATSLETGVPSRFSGSGSGKDYTFTISSLQPEDFATYYCQQYWSNPYTFGCGTKLEIKGGGGSGGGGSGGGGSGGGGSHVQLVESGGGLVQPGGSLRLSCAASGFSLTDYGVHWVRQAPGKGLEWLGVIWSGGGTAYNTALISRFTISRDNSKNTLYLQMNSLRAEDTAVYYCARRGSYPYNYFDAWGCGTLVTVSSGGGGSGGGGSGGGGSGGGGSGGGGSGGGGSQAVVTQEPSLTVSPGGTVTLTCGSSTGAVTASNYANWVQQKPGQCPRGLIGGHNNRPPGVPARFSGSLLGGKAALTLLGAQPEDEAEYYCALWYSDHWVIGGGTKLTVLGTPLGDTTHTSGKPLDGEYFTLQIRGRERFEMFRELNEALELKDAQAGKEPGGSGGAPHHHHHH
notes: SADA construct with VL8 and VH11 (extra disulfide in the anti-CD38 scFv), VH-VL order
[1]
  EC50 (read off the curve): ~0.05 µg/mL
[2]
  EC50 (read off the curve): ~0.07 µg/mL
[3]
  Kd: 0.28 nM
  kon: 89000 M⁻¹ s⁻¹
[4]
  Kd: 0.532 nM

B2: L3H6 (antibody, V domains shown)
VH: QVQLQESGPGLVKPSETLSLTCTVSGFSLTSYGVHWIRQPPGKGLEWLGVMWRGGSTNYNPSLKSRVTISKDTSKNQFSLKLSSVTAADTAVYYCAKSMITTGFVMDSWGQGTLVTVSS
VL: DIQMTQSPSSLSASVGDRVTITCRASEDIYNRLTWYQQKPGKAPKLLLSGATSLETGVPSRFSGSGSGTDYTLTISSLQPEDFATYYCQQYWSNPYTFGGGTKVEIK
notes: Humanized AT13/5 IgG, VL3 + VH6
[5]
  Kd: 1300 nM

B3: L4H1 (antibody, V domains shown)
VH: QVQLQESGPGLVKPSETLSLTCTVSGFSLTSYGVHWIRQPPGKGLEWIGVMWRGGSTDYNPSLKSRVTISKDNSKRQFSLKLSSVTAADTAVYYCAKSMITTGFVMDSWGQGTLVTVSS
VL: DIQMTQSPSSLSASVGDRVTITCRASEDIYNRLTWYQQKPGKAPKLLLYGATSLETGVPSRFSGSGSGKDYTLTISSLQPEDFATYYCQQYWSNPYTFGGGTKVEIK
notes: Humanized AT13/5 IgG, VL4 + VH1
[5]
  Kd: 100 nM

B4: L4H5 (antibody, V domains shown)
VH: QVQLQESGPGLVKPSETLSLTCTVSGFSLTSYGVHWIRQPPGKGLEWIGVMWRGGSTDYNPSLKSRVTISVDTSKNQFSFKLSSVTAADTAIYYCAKSMITTGFVMDSWGQGTLVTVSS
VL: DIQMTQSPSSLSASVGDRVTITCRASEDIYNRLTWYQQKPGKAPKLLLYGATSLETGVPSRFSGSGSGKDYTLTISSLQPEDFATYYCQQYWSNPYTFGGGTKVEIK
notes: Humanized AT13/5 IgG, VL4 + VH5
[5]
  Kd: 320 nM

B5: L4H4 (antibody, V domains shown)
VH: QVQLQESGPGLVKPSETLSLTCTVSGFSLTSYGVHWIRQPPGKGLEWIGVMWRGGSTDYNPSLKSRVTISVDTSKRQVSLKLSSVTAADTAVYYCAKSMITTGFVMDSWGQGTLVTVSS
VL: DIQMTQSPSSLSASVGDRVTITCRASEDIYNRLTWYQQKPGKAPKLLLYGATSLETGVPSRFSGSGSGKDYTLTISSLQPEDFATYYCQQYWSNPYTFGGGTKVEIK
notes: Humanized AT13/5 IgG, VL4 + VH4
[5]
  Kd: 140 nM

B6: L3H7 (antibody, V domains shown)
VH: QVQLKQSGPGLVKPSETLSLTCTVSGFSLTSYGVHWIRQPPGKGLEWIGVMWRGGSTNYNPSLKSRLTISVDTSKNQFSLKLSSVTAADTAVYYCAKSMITTGFVMDSWGQGTLVTVSS
VL: DIQMTQSPSSLSASVGDRVTITCRASEDIYNRLTWYQQKPGKAPKLLLSGATSLETGVPSRFSGSGSGTDYTLTISSLQPEDFATYYCQQYWSNPYTFGGGTKVEIK
notes: Humanized AT13/5 IgG, VL3 + VH7
[5]
  Kd: 100 nM

B7: L4H2 (antibody, V domains shown)
VH: QVQLQESGPGLVKPSETLSLTCTVSGFSLTSYGVHWVRQPPGKGLEWIGVMWRGGSTDYNPSLKSRVTISKDNSKRQFSLKMSSVTAADTAVYYCAKSMITTGFVMDSWGQGTLVTVSS
VL: DIQMTQSPSSLSASVGDRVTITCRASEDIYNRLTWYQQKPGKAPKLLLYGATSLETGVPSRFSGSGSGKDYTLTISSLQPEDFATYYCQQYWSNPYTFGGGTKVEIK
notes: Humanized AT13/5 IgG, VL4 + VH2
[5]
  Kd: 250 nM

B8: L4H7 (antibody, V domains shown)
VH: QVQLKQSGPGLVKPSETLSLTCTVSGFSLTSYGVHWIRQPPGKGLEWIGVMWRGGSTNYNPSLKSRLTISVDTSKNQFSLKLSSVTAADTAVYYCAKSMITTGFVMDSWGQGTLVTVSS
VL: DIQMTQSPSSLSASVGDRVTITCRASEDIYNRLTWYQQKPGKAPKLLLYGATSLETGVPSRFSGSGSGKDYTLTISSLQPEDFATYYCQQYWSNPYTFGGGTKVEIK
notes: Humanized AT13/5 IgG, VL4 + VH7
[5]
  Kd: 870 nM

B9: L4H6 (antibody, V domains shown)
VH: QVQLQESGPGLVKPSETLSLTCTVSGFSLTSYGVHWIRQPPGKGLEWLGVMWRGGSTNYNPSLKSRVTISKDTSKNQFSLKLSSVTAADTAVYYCAKSMITTGFVMDSWGQGTLVTVSS
VL: DIQMTQSPSSLSASVGDRVTITCRASEDIYNRLTWYQQKPGKAPKLLLYGATSLETGVPSRFSGSGSGKDYTLTISSLQPEDFATYYCQQYWSNPYTFGGGTKVEIK
notes: Humanized AT13/5 IgG, VL4 + VH6
[5]
  Kd: 580 nM

B10: L4H3 (antibody, V domains shown)
VH: QVQLQESGPGLVKPSETLSITCTVSGFSLTSYGVHWIRQPPGKGLEWIGVMWRGGSTDYNPSLKSRVTISKDTSKNQFSLKLSSLTAADTAVYYCAKSMITTGFVMDSWGQGTLVTVSS
VL: DIQMTQSPSSLSASVGDRVTITCRASEDIYNRLTWYQQKPGKAPKLLLYGATSLETGVPSRFSGSGSGKDYTLTISSLQPEDFATYYCQQYWSNPYTFGGGTKVEIK
notes: Humanized AT13/5 IgG, VL4 + VH3
[5]
  Kd: 200 nM

B11: 8DC-5 (anti-CD38 scFv-(G4S)4-huC825 anti DOTA scFv-linker-P53-linker-His tag) (bispecific antibody)
chain: DIQLTQSPSSLSASVGDRVTITCKASEDIYNRLTWYQQKPGKAPKLLISGATSLETGVPSRFSGSGSGKDYTFTISSLQPEDFATYYCQQYWSNPYTFGCGTKLEIKGGGGSGGGGSGGGGSGGGGSGGGGSGGGGSQVQLQESGPGLVKPSETLSLTCTVSGFSLTSYGVHWVRQPPGKCLEWIGVMWRGGSTDYNAAFKSRVTISKDNSKNQVSLKLSSVTAADTAVYYCAKSMITTGFVMDSWGQGTLVTVSSGGGGSGGGGSGGGGSGGGGSHVQLVESGGGLVQPGGSLRLSCAASGFSLTDYGVHWVRQAPGKGLEWLGVIWSGGGTAYNTALISRFTISRDNSKNTLYLQMNSLRAEDTAVYYCARRGSYPYNYFDAWGCGTLVTVSSGGGGSGGGGSGGGGSGGGGSGGGGSGGGGSQAVVTQEPSLTVSPGGTVTLTCGSSTGAVTASNYANWVQQKPGQCPRGLIGGHNNRPPGVPARFSGSLLGGKAALTLLGAQPEDEAEYYCALWYSDHWVIGGGTKLTVLGTPLGDTTHTSGKPLDGEYFTLQIRGRERFEMFRELNEALELKDAQAGKEPGGSGGAPHHHHHH
notes: SADA construct with VL8 and VH11 (extra disulfide in the anti-CD38 scFv), VL-VH order
[1]
  EC50 (read off the curve): ~0.07 µg/mL
[2]
  EC50 (read off the curve): ~0.05 µg/mL
[3]
  Kd: 0.17 nM
  kon: 96000 M⁻¹ s⁻¹
[6]
  Kd: 0.214 nM

B12: Chimeric (chimeric AT13/5 anti-CD38 IgG) (antibody, V domains shown)
VH: QVQLKQSGPGLVHPSQSLSITCTVSGFSLTSYGVHWVRQSPGKGLEWLGVMWRGGSTDYNAAFMSRLNITKDNSKRQVFFKMNSLQADDTAIYYCAKSMITTGFVMDSWGQGTSVTVSS
VL: DIQLTQSPSSFSVSLGDRVTITCKASEDIYNRLTWYQQKPGNAPRLLISGATSLETGVPSRFSGSGSGKDYTLSITSLQTEDVATYYCQQYWSNPYTFGGGTKLEIR
notes: IgG format, captured on anti-human Fc; chimeric VL + chimeric VH (murine AT13/5 variable regions)
[5]
  Kd: 2.8 nM

B13: 8DC1OK (CD3xCD38 bispecific antibody, IgG-L-scFv format, chimeric AT13/5 VL and VH) (bispecific antibody)
light: DIQLTQSPSSFSVSLGDRVTITCKASEDIYNRLTWYQQKPGNAPRLLISGATSLETGVPSRFSGSGSGKDYTLSITSLQTEDVATYYCQQYWSNPYTFGGGTKLEIRRTVAAPSVFIFPPSDEQLKSGTASVVCLLNNFYPREAKVQWKVDNALQSGNSQESVTEQDSKDSTYSLSSTLTLSKADYEKHKVYACEVTHQGLSSPVTKSFNRGECGGGGSGGGGSGGGGSGGGGSQVQLVQSGGGVVQPGRSLRLSCKASGYTFTRYTMHWVRQAPGKCLEWIGYINPSRGYTNYNQKFKDRFTISRDNSKNTAFLQMDSLRPEDTGVYFCARYYDDHYSLDYWGQGTPVTVSSGGGGSGGGGSGGGGSGGGGSGGGGSGGGGSDIQMTQSPSSLSASVGDRVTITCSASSSVSYMNWYQQTPGKAPKRWIYDTSKLASGVPSRFSGSGSGTDYTFTISSLQPEDIATYYCQQWSSNPFTFGCGTKLQITR
heavy: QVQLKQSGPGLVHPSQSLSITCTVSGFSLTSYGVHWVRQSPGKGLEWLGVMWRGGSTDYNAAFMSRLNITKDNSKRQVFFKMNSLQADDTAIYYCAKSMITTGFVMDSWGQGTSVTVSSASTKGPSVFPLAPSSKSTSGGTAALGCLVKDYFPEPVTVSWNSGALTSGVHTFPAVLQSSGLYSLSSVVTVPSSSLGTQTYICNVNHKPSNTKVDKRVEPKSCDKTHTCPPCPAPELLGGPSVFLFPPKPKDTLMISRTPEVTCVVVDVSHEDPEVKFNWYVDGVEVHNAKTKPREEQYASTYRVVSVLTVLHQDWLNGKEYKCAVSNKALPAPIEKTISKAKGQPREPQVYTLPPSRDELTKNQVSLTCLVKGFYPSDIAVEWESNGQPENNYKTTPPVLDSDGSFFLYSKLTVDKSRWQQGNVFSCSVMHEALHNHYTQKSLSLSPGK
notes: Light chain: anti-CD38 VL-CL-(G4S)4-huOKT3 VH-(G4S)6-huOKT3 VL; also called the chimeric antibody 8DC1OK
[7]
  EC50: 0.076 µg/mL
[8]
  Kd: 1.6 nM
  koff: 0.00076 s⁻¹
  kon: 470000 M⁻¹ s⁻¹

B14: 8DC3OK (CD3xCD38 bispecific antibody, IgG-L-scFv format, humanized VL5 and VH8) (bispecific antibody)
light: DIQLTQSPSSLSASVGDRVTITCKASEDIYNRLTWYQQKPGKAPKLLISGATSLETGVPSRFSGSGSGKDYTFTISSLQPEDFATYYCQQYWSNPYTFGQGTKLEIKRTVAAPSVFIFPPSDEQLKSGTASVVCLLNNFYPREAKVQWKVDNALQSGNSQESVTEQDSKDSTYSLSSTLTLSKADYEKHKVYACEVTHQGLSSPVTKSFNRGECGGGGSGGGGSGGGGSGGGGSQVQLVQSGGGVVQPGRSLRLSCKASGYTFTRYTMHWVRQAPGKCLEWIGYINPSRGYTNYNQKFKDRFTISRDNSKNTAFLQMDSLRPEDTGVYFCARYYDDHYSLDYWGQGTPVTVSSGGGGSGGGGSGGGGSGGGGSGGGGSGGGGSDIQMTQSPSSLSASVGDRVTITCSASSSVSYMNWYQQTPGKAPKRWIYDTSKLASGVPSRFSGSGSGTDYTFTISSLQPEDIATYYCQQWSSNPFTFGCGTKLQITR
heavy: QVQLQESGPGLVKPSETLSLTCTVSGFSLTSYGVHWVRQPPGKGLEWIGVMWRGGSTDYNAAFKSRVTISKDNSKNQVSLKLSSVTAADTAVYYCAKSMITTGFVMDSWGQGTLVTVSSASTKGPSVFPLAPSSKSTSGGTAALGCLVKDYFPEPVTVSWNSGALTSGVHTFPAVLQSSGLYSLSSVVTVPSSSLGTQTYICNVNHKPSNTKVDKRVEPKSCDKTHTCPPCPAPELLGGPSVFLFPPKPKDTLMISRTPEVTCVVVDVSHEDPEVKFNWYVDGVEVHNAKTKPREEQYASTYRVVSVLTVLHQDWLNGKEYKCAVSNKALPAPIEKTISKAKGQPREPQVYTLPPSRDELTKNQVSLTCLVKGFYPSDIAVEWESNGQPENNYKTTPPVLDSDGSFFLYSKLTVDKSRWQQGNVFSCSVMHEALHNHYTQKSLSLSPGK
notes: Light chain: anti-CD38 VL-CL-(G4S)4-huOKT3 VH-(G4S)6-huOKT3 VL
[7]
  EC50: 0.167 µg/mL
  fold weaker EC50 than the chimeric antibody 8DC1OK: ~2 fold
[8]
  Kd: 8.8 nM
  koff: 0.0018 s⁻¹
  kon: 210000 M⁻¹ s⁻¹
[9]
  EC50 (read off the curve): ~0.1 µg/mL
